# Laboratory results taken from article doi:10.1101/865998 (bioRxiv, 2019).
# Where “and” joins values, the source holds several entries; their conditions need not be identical. Equal values may be shown once. No end group written: not given here.
# B1: CX3CL1-EYFP fusion protein (L929 cells stably expressing CX3CL1, L_(CX3CL1)) (natural protein)
# chain: QHHGVTKCNITCSKMTSKIPVALLIHYQQNQASCGKRAIILETRQHRLFCADPKEQWVKDAMQHLDRQAAALTRNGGTFEKQIGEVKPRTTPAAGGMDESVVLEPEATGESSSLEPTPSSQEAQRALGTSPELPTGVTGSSGTRLPPTPKAQDGGPVGTELFRVPPVSTAATWQSSAPHQPGPSLWAEAKTSEAPSTQDPSTQASTASSPAPEENAPSEGQRVWGQGQSPRPENSLEREEMGPVPAHTDAFQDWGPGSMAHVSVVPVSSEGTPSREPVASGSWTPKAEEPIHATMDPQRLGVLITPVPDAQAATRRQAVGLLAFLGLLFCLGVAMFTYQSLQGCPRKMAGEMAEGLRYIPRSCGSNSYVLVPV
# Key:
# [1] = biological target: TM24 peptide expressed as a EYFP fusion in COS cells; experiment: FRAP
# native gel or EMSA = biological target: the molecule itself; experiment: native gel or EMSA
# [2] = biological target: the molecule itself; experiment: SDS-PAGE without cross-linker
# FRAP = biological target: the molecule itself; experiment: FRAP
molecule,measurement,setting,value
TM24 peptide expressed as a EYFP fusion in COS cells (domain or fragment),stoichiometry N,[1],7
B1,stoichiometry N,native gel or EMSA,~3 and 5 and ≥ 3
KKVGLLAFLGLLFCLGVAMFTYKK [TM24 peptide (20 residues of the CX3CL1 TM domain with 2 lysines added at each end)],stoichiometry N,[2],2
"KKVGLLAFLGLLFCLGVAMFTYKK (also: FITC conjugated, position not given here) [TM24-FITC]",binding result,FRAP,binds
